# Data taken from US20060148057A1, “Thioredoxin mutants and uses thereof” (priority 2002, published 2006).
# Columns and labels:
# ASK1 [1] = experiment: Association of Trx with ASK1 in vivo in BAEC (co-immunoprecipitation); format: binding, Bovine; details: for association of Flag-Trx with HA-ASK1 after TNF treatment: TNF 10 ng/ml for 15 min; for binding of Flag-Trx to HA-ASK1: resting EC, co-immunoprecipitation
# Procedure: (§1) Immunoprecipitation and immunoblotting EC after various treatments were washed twice with cold PBS and lysed in 1.5 ml of cold lysis buffer (50 mM Tris-HC, pH 7.6, 150 mM NaCl, 0.1% Triton X-100, 0.75% Brij 96, 10 μg/ml aprotinin, 10 μg/ml leupeptin, 2 mM PMSF, 1 mM EDTA) for 20 min on ice. Protein concentrations were determined with a Bio-Rad kit. For immunoprecipitation to analyze protein interaction in vivo, 400 μg of cell lysate supematant were incubated with 5 μg of the first protein-specific antiserum (e.g. anti-Trx from Medical & Biological Laboratory) for 2 h with 50 μl of GammaBind plus Sepharose. Immune complexes were collected after each immunoprecipitation by centrifugation at 14,000× g for 10 min followed by 4 washes with lysis buffer. The immune complexes were subjected to Western blot with the second protein (e.g., ASK1)-specific antibody (Santa Cruz Biotech, Santa Cruz, Calif.). The chemiluminescence was detected using an ECL kit according to the instructions of the manufacturer (Amersham Life Science, Arlington Heights, Ill.). For Flag-tagged and HA-tagged proteins, anti-Flag M2 antibody (Sigma) and anti-HA antibody (Roche Diagnostics) were used, respectively.
# TNF dissociates wild type Trx but not Trx-C32S or Trx-C35Sfroin ASK1 in vivo. Trx-C32S and Trx-C35S were examiner to determine whether they constitutively bind to ASK1 in vivo. Regulation of ASK1 by Trx was first examined to determine if such regulation is ROS-dependent in EC. BAEC were either untreated or treated with N-acetyl-cysteine (Nac, 1 mM) or vehicle for 60 min prior to TNF-α (10 ng/ml) stimulation for 15 min. TNF-induced ASK1 activation was measured by an in vitro kinase assay using GST-MKK4 (JNKK1) fusion protein as a substrate. TNF activated ASK1 in EC (FIG. 5A). […] Association of ASK1 with Trx was easily detected in untreated EC cells (FIG. 5B, Ctrl). […] In contrast, Nac pretreatment prevented TNF-induced dissociation of ASK1 from Trx. Similar results were obtained in human EC (HUVEC).
# To examine association of Trx mutants with ASK1 in vivo, the Flag-tagged Trx construct (WT, CS, C32S or C35S) was co-transfected with HA-ASK1 into BAEC and the interaction of these Trx proteins with ASK1 were examined by co-immunoprecipitation assay. As expected, Trx-WT, Trx-C32S and Trx-Trx-C35S (but not Trx-CS) bound to ASK1 in resting EC (FIG. 5C).
# Target sequence in this assay (Q99683 whole entry): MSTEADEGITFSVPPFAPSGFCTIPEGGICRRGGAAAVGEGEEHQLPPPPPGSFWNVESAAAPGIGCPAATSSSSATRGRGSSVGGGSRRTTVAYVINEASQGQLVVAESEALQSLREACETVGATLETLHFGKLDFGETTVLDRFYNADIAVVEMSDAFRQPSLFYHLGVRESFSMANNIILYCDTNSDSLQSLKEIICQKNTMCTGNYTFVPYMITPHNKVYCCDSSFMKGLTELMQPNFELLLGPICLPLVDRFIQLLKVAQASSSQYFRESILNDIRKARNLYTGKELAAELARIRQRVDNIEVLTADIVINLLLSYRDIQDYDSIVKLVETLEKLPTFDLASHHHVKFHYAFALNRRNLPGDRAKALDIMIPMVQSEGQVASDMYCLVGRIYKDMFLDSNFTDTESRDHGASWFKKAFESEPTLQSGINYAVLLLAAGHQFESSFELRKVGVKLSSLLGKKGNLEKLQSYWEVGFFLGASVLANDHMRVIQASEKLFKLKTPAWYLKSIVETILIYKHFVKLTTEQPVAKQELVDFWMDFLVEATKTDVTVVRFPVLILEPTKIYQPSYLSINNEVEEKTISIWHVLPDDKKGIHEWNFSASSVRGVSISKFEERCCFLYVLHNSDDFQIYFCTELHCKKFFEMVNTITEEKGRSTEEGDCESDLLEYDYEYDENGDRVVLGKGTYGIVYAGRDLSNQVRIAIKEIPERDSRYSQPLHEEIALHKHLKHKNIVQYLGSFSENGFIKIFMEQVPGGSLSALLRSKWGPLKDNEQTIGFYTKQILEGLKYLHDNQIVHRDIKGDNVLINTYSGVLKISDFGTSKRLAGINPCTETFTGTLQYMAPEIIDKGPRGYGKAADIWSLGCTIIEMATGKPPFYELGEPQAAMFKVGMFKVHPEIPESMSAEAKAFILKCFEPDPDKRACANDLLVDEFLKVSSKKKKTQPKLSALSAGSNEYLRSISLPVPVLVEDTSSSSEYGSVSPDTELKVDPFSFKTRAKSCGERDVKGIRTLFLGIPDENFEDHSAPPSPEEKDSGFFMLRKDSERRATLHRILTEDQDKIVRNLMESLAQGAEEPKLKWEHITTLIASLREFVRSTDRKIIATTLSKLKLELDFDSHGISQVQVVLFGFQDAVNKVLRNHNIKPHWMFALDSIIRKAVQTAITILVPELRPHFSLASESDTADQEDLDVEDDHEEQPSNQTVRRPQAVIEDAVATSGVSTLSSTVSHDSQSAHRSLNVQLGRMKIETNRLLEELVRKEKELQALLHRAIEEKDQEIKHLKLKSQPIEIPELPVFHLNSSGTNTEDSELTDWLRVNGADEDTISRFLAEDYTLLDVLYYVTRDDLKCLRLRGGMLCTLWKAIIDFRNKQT
# ASK1 [2] = experiment: Trx-induced ASK1 ubiquitination and degradation in transfected BAEC (Western blot, IP/anti-Ub); format: cell-based, Bovine; details: for ASK1 poly-ubiquitination / endogenous ASK1 protein level: BAEC transfected with Trx construct vs control vector; for endogenous ASK1 protein level: Western blot anti-ASK1
# Procedure: Transfection Transfection of EC was performed by Lipofectamine2000 according to manufacturer's protocol (Gibco). Cells were cultured at 90% confluence in 6-well plates and were transfected with total 4 μg plasmid constructs as indicated. Cells were harvested at 36-48 h post-transfection and cell lysates were used for protein assays.
# as §1
# Trx induces ASK1 ubiquitination and degradation in EC. To determine if Trx affects ASK1 protein stability, BAEC were transfected with Trx-expressing plasmid or a control vector (VC) with Lipofactamine2000. Transfection efficiency was determined by transfection of a GFP construct under a fluorescence microscope and usually reached 90% in BAEC and 10% in HUVEC. The high transfection efficiency in BAEC allowed us to examine effects of transgene on endogenous ASK1. Endogenous ASK1 was determined by Western blot with anti-ASK1. […] The high molecular bands are usually ubiquitination of target proteins for degradation (Laney J D et al. Substrate targeting in the ubiquitin system. Cell 97:427-30 (1999)). […] The ubiquitination of ASK1 was also confirmed by co-expression of ASK1 and HA-tag Ub (Treier et al. Ubiquitin-dependent c-Jun degradation in vivo is mediated by the delta domain. Cell 78:787-98 (1994)).
molecule,measurement,setting,value
"thioredoxin (protein, Flag tag or GST fusion, Flag-tagged or GST fusion) MVKQIESKTAFQEALDAAGDKLVVVDFSATWCGPCKMIKPFFHSLSEKYSNVIFLEVDVDDCQDVASECEVKCMPTFQFFKKGQKVGEFSGANKEKLEATINELV",association of Flag-Trx with HA-ASK1 after TNF treatment,ASK1 [1],completely dissociated
same,binding of Flag-Trx to HA-ASK1,ASK1 [1],bound to ASK1
same,ubiquitination and degradation of ASK1-ΔN,ASK1 [2]; BAEC co-transfected with ASK1-ΔN (lacks N-terminal Trx-binding domain),did not induce ubiquitination and degradation
same,ASK1 poly-ubiquitination,ASK1 [2],increased ASK1 poly-ubiquitination
same,endogenous ASK1 protein level,ASK1 [2],decrease in ASK1 protein
same,endogenous ASK1 protein level,ASK1 [2]; listed as Trx,decreased protein level of ASK1
same,ASK1 poly-ubiquitination,ASK1 [2]; listed as Trx,significantly increased ASK1 ubiquitination
"Trx-C32S: C32S single mutant of Trx at the catalytic site, SEQ ID NO:2 (protein) MVKQIESKTAFQEALDAAGDKLVVVDFSATWSGPCKMIKPFFHSLSEKYSNVIFLEVDVDDCQDVASECEVKCMPTFQFFKKGQKVGEFSGANKEKLEATINELV",association of Flag-Trx with HA-ASK1 after TNF treatment,ASK1 [1],not reduced
same,binding of Flag-Trx to HA-ASK1,ASK1 [1],bound to ASK1
same,ASK1 poly-ubiquitination,ASK1 [2],increased ASK1 poly-ubiquitination
same,endogenous ASK1 protein level,ASK1 [2],decrease in ASK1 protein
"Trx-C35S: C35S single mutant of Trx at the catalytic site, SEQ ID NO:3 (protein) MVKQIESKTAFQEALDAAGDKLVVVDFSATWCGPSKMIKPFFHSLSEKYSNVIFLEVDVDDCQDVASECEVKCMPTFQFFKKGQKVGEFSGANKEKLEATINELV",association of Flag-Trx with HA-ASK1 after TNF treatment,ASK1 [1],not reduced
same,binding of Flag-Trx to HA-ASK1,ASK1 [1],bound to ASK1
same,ASK1 poly-ubiquitination,ASK1 [2],increased ASK1 poly-ubiquitination
same,endogenous ASK1 protein level,ASK1 [2],decrease in ASK1 protein
